From patent publication US20260285962 (published 2026)
Substitutions are numbered along the chain they refer to. Values belong to the binder of their own block, whether it stands above or below them.

Key:
Human Activin A-Fc [1] = molecular target: T1, Human Activin A-Fc (human); assay: BLI, bivalent
T1 chain: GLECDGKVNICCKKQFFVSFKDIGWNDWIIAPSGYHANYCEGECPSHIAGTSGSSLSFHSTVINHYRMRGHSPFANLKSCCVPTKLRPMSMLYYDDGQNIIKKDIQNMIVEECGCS

BMP9 = molecular target: T2, BMP9 (UniProt Q9UK05); assay: BLI, bivalent
T2 chain: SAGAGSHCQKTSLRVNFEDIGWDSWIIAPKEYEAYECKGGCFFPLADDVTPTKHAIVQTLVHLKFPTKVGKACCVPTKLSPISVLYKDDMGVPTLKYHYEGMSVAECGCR

Human GDF11 [2] = molecular target: T3, Human GDF11 (human, UniProt O95390); assay: BLI, bivalent
T3 chain: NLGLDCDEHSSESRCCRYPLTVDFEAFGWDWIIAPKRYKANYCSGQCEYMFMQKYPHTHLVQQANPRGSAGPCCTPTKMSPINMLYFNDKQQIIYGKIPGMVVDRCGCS

BMP10 = molecular target: T4, BMP10 (UniProt O95393); assay: BLI, bivalent
T4 chain: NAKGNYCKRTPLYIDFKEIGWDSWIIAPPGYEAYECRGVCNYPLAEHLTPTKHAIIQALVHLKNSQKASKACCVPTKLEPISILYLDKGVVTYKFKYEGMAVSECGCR

Human GDF8 = Human GDF8 (human, UniProt O14793); assay: BLI, bivalent
Chain of Human GDF8 (O14793 267-375): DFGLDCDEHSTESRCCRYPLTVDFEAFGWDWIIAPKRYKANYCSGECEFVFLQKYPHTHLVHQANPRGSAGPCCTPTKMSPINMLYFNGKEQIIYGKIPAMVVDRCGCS

Human GDNF = molecular target: T5, Human GDNF (human, UniProt P39905); assay: BLI, bivalent
T5 chain: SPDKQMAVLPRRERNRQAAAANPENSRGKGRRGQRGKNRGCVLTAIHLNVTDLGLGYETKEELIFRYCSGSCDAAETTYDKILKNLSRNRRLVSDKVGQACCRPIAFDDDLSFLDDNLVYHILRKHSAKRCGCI

Human Activin B = molecular target: T6, Human Activin B (human); assay: BLI, bivalent
T6 chain: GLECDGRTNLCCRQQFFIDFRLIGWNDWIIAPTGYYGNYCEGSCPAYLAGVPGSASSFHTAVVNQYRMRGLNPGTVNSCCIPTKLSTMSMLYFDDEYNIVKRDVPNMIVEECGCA

GDF15-Fc = molecular target: T7, GDF15-Fc (UniProt Q99988); assay: BLI, bivalent
T7 chain: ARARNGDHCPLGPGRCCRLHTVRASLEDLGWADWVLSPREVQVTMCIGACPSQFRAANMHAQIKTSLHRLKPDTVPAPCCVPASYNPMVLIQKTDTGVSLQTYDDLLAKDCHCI

Human GDF10 [3] = molecular target: T8, Human GDF10 (human, UniProt P55107); assay: BLI, bivalent
T8 chain: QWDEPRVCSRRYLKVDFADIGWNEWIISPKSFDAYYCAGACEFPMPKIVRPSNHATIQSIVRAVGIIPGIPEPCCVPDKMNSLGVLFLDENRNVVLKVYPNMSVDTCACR

Human Follistatin 300 = molecular target: T9, Human Follistatin 300 (human, UniProt P19883); assay: BLI, bivalent
T9 chain: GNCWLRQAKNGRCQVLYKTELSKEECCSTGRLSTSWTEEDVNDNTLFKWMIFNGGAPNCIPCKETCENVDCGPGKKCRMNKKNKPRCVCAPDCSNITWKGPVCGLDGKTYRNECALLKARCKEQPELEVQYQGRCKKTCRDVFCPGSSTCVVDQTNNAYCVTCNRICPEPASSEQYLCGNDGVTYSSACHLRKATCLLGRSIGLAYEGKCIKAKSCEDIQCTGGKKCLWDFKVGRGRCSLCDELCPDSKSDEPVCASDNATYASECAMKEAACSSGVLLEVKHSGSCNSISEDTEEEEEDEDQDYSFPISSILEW

Human Activin A-Fc [4] = molecular target: T1, Human Activin A-Fc; assay: BLI, monovalent
[5] = molecular target: T10, Human Activin A (biotinylated) (human); assay: SPR, 25C, monovalent
T10 chain: T1 chain

Human GDF11 [6] = molecular target: T3, Human GDF11; assay: BLI, bivalent
Human GDF10 [7] = molecular target: T8, Human GDF10; assay: BLI, bivalent

Kd (Human Activin A-Fc [1]): 0.552 nM
binding result (BMP9): no binding
Kd (Human GDF11 [2]): 8.41 nM
binding result (BMP10): no binding
binding result (Human GDF8): no binding
binding result (Human GDNF): no binding
Kd (Human Activin B): 0.861 nM
binding result (GDF15-Fc): no binding
Kd (Human GDF10 [3]): 25.8 nM
binding result (Human Follistatin 300): no binding
B1: Clone C IgG (antibody, V domains shown)
VH: QLQLQESGPGLVKPSETLSLTCTVSGGSISSYDPYWGWIRQPPGKGLEWIGSISYSGSTLYNPSLKSRVTISVDTSKNQFSLKLSSVTAADTAVYYCAREVSYLGSRRYGMDVWGQGTTVTVSS
VL: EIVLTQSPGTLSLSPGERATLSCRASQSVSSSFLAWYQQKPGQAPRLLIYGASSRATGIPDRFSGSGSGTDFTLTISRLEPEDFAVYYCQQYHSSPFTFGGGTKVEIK

Kd (Human Activin A-Fc [4]): 0.963 nM
Kd [5]: 0.0832 nM
B2: Clone C Fab (antibody, V domains shown)
VH: B1 VH
VL: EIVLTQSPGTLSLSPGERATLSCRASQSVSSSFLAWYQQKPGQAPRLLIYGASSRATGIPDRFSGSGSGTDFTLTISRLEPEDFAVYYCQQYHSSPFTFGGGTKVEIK

Kd (Human Activin A-Fc [1]): 0.545 nM
binding result (BMP9): no binding
binding result (BMP10): no binding
binding result (Human GDF8): no binding
binding result (Human GDNF): no binding
Kd (Human Activin B): 0.766 nM
binding result (GDF15-Fc): no binding
binding result (Human GDF11 [6]): no binding
binding result (Human GDF10 [7]): no binding
binding result (Human Follistatin 300): no binding
B3: Clone B IgG (antibody, V domains shown)
VH: QLQLQESGPGLVKPSETLSLTCTVSGGSISSQQYYWGWIRQPPGKGLEWIGSISYAASTYYNPSLKSRVTISVDTSKNQFSLKLSSVTAADTAVYYCAREGYDSYSYDVWGQGTMVTVSS
VL: EIVLTQSPATLSVSPGERATLSCRASQSVGSNLAWYQQKPGQAPRLLIYGASTRATGIPARFSGSGSGTEFTLTISSLQSEDFAVYYCQQYNFYPPITFGGGTKVEIK

Kd (Human Activin A-Fc [1]): 0.661 nM
binding result (BMP9): no binding
binding result (BMP10): no binding
binding result (Human GDF8): no binding
binding result (Human GDNF): no binding
Kd (Human Activin B): 0.76 nM
binding result (GDF15-Fc): no binding
binding result (Human GDF11 [6]): no binding
binding result (Human GDF10 [7]): no binding
binding result (Human Follistatin 300): no binding
B4: Clone A IgG (antibody, V domains shown)
VH: B3 VH with Q32S, Q33S, A56S, A57G
VL: B3 VL

Kd (Human Activin A-Fc [4]): 2.1 nM
Kd [5]: 0.903 nM
B5: Clone B Fab (antibody, V domains shown)
VH: B3 VH
VL: B3 VL

Kd (Human Activin A-Fc [4]): 3.55 nM
Kd [5]: 1.64 nM
B6: Clone A Fab (antibody, V domains shown)
VH: B3 VH with Q32S, Q33S, A56S, A57G
VL: B3 VL
